This data set has as its system MS2 coat protein. Kind of data set: apparent KD of MS2 coat protein; designed switch direction (-1 OFF switch, 1 ON switch): 1; higher = weaker reporter binding. The essentials:
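Each step of the titration lasted 0.8–1.5 h at the lowest concentration and 10–20 min at the highest. The protein, SNAP-549-labelled MS2 coat protein, went from 0.7 or 1.5 nM doubling to 3 µM over RNA switches transcribed on Illumina chips by stalled E. coli RNA polymerase. Normalised cluster fluorescence was curve-fitted, and the per-design median over clusters is given as apparent KD.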

[1] abbreviates: Eterna round: R95, input ligand: FMN 200 uM.
Where [2] appears, read: Eterna round: R95, input ligand: microRNA oligo, concentration not stated.
[3] abbreviates: Eterna round: R95, input ligand: none.
[4] abbreviates: input ligand: microRNA oligo, concentration not stated.

We go through 29 sequences from the supplement of paper PMC9170038.

With “UAGCACUGUCGAGAGGAUAUGCGGUGAUGGACAUGAGGAUCACCCAUGUUAGCGACAGCAUCACGGCAGAAGGCUCUACUGCUGC [Soteed Omei mod 35] (puzzle: Same State 2)”, the “apparent KD of MS2 coat protein” value amounted to 11.7 nM under setting [1], 15.6 nM under setting [2] and 13.7 nM under setting [3].

Regarding “UAGGAACAUGAGGAUCACCCAUGUACCUCAUAUGGAGAAACACAGGAUAUGCUCAGCGAAAGAGAGCAGAAGGGUGAAGAGAGG [Default title] (Eterna round: R96, puzzle: Same State NG 3)”, the “apparent KD of MS2 coat protein” value runs as follows: (input ligand: FMN 200 uM) 23.6 nM; under setting [4], 27.6 nM; (input ligand: none) 31.6 nM.

“UAGGAUCAACGAGGAUAUAAUAGGUUCAAUUUUUUAUAUUGUUUACAUGAGGAUCACCCAUGUUAUUAGAAGGCGUAUGGGAUU [JR_SSNG2_Sub084] (Eterna round: R96, puzzle: Same State NG 2)”: the “apparent KD of MS2 coat protein” value under setting [4] worked out at 39.9 nM.

For “UAUCCAUAGAUAGGAUAUCAGUAUACAUGAGGAUCACCCAUGUUAUAUUUGGUUUUAAGUUAGUCUGAGAAGGAUCUUGAUGAA [SameState NG2 #3] (Eterna round: R96, puzzle: Same State NG 2)”, the “apparent KD of MS2 coat protein” value is 12.4 nM (input ligand: FMN 200 uM), 11.1 nM under setting [4] and 15.6 nM (input ligand: none).

Turning to “UAUGAAUAGCAAGGAUAUUGAUAACAUGAGGAUCACCCAUGUAAUUGAUCGAGUUAGAUCAGUUACAAGAAGGUGCAAUUGAUU [JR_SSNG2_Sub035] (Eterna round: R96, puzzle: Same State NG 2)”, the “apparent KD of MS2 coat protein” value under setting [4] is 19.4 nM.

For “UAUUAAGCUGUAGGAUAUCUAGGAUAUGGACGAGGAUCACCCGAGCAGCAUCAGCGCACCAGAGGAGAGAAGGACGCUUUGGAA [pwkr ssNG2 2F5 2FMN.3] (Eterna round: R96, puzzle: Same State NG 2)”, the “apparent KD of MS2 coat protein” value runs as follows: (input ligand: FMN 200 uM) 463 nM; under setting [4], 882 nM; (input ligand: none) 916 nM.

For “UAUUAAGCUGUAGGAUAUCUAGGAUAUGGACGAGGAUCACCCGAGCAGCAUCAGCGCACCAGAGGAGAGAAGGACGCUUUGGUG [pwkr ssNG2 2F5 2FMN.23] (Eterna round: R96, puzzle: Same State NG 2)”, the “apparent KD of MS2 coat protein” value turned out to be 961 nM (input ligand: FMN 200 uM), 348 nM under setting [4] and 2730 nM (input ligand: none).

On to “UAUUUAAUCAUAGGAUAUAGAGUGAAAUUUGGACUAGAAGGAUGUAACAUGAGGAUCACCCAUGUGGUAAGUGGGACACAGUGU [JR_SSNG1_Sub094] (Eterna round: R96, puzzle: Same State NG 1)”, for which the “apparent KD of MS2 coat protein” value turned out to be 206 nM (input ligand: FMN 200 uM), 85.5 nM under setting [4] and 129 nM (input ligand: none).

Take “UAUUUAAUCAUAGGAUAUAGUGUGAAAUUUGGACUAGAAGGAUGUAACAUGAGGAUCACCCAUGUGGUAAGUGGGACACAGUGA [JR_SSNG1_Sub096] (Eterna round: R96, puzzle: Same State NG 1)”: the “apparent KD of MS2 coat protein” value under setting [4] is 114 nM.

“UCAACUUCUUUUAGUGUGUUGCCAGUUUUACAUGAGGAUCACCCAUGUUAAGUAUUGUGGUAUUUUGUUCGUCUUAA [JR_SHM208A_Sub073] (puzzle: Sensor for hsa-mir-208a)”: the “apparent KD of MS2 coat protein” value under setting [1] worked out at 15.6 nM, the “apparent KD of MS2 coat protein” value under setting [2] came out at 14.3 nM and the “apparent KD of MS2 coat protein” value under setting [3] stood at 16.3 nM.

Regarding “UCAAGCGAGAGGCUCGUCUUAUGCAAGGAACAUGAGGAUCACCCAUGUGAGGGACGAUUGAGUUAGAUGGAAUGGAG [JR_SHM208A_Sub032] (puzzle: Sensor for hsa-mir-208a)”, the “apparent KD of MS2 coat protein” value is, setting by setting: under setting [1], 29.9 nM; under setting [2], 136 nM; under setting [3], 33.5 nM.

Turning to “UCAAGGUUUUUGCUCGUUUUAUGUGUUGAACAUGAGGAUCACCCAUGUAUUGUACGAUCCAGUUAGAUGGUGGUUUG [JR_SHM208A_Sub042] (puzzle: Sensor for hsa-mir-208a)”, the “apparent KD of MS2 coat protein” value is 87.4 nM under setting [1], 78.1 nM under setting [2] and 132 nM under setting [3].

Consider “UCAUGGUUUUUGCUCGUUUUAUGUGUUGAACAUGAGGAUCACCCAUGUAUUGUACGAUCCAGUUAGAUGGUGGUUUG [JR_SHM208A_Sub043] (puzzle: Sensor for hsa-mir-208a)”, for which the “apparent KD of MS2 coat protein” value runs as follows: under setting [1], 235 nM; under setting [2], 85.8 nM; under setting [3], 469 nM.

For the sequence “UCCGCUAUCUAGAAGGAUAUGCGUAAAUAAACAUGAGGAUCACCCAUGUACCGGCGAAAGCCGGUGCAGAAGGUUUAGCUAGUGA [Xeisgexe] (puzzle: Same State 2)”, the “apparent KD of MS2 coat protein” value by setting is: under setting [1], 38.2 nM; under setting [2], 574 nM; under setting [3], 390 nM.

Take “UCGGGCGUACUUGCUGACAUGAGGAUCACCCAUGUCCUUGGACAGGAUAUGGUUCCGUUUCGGUUCCAGAAGGUCCUGGCUGCU [salish99_SSNG3_r04_320] (Eterna round: R96, puzzle: Same State NG 3)”: the “apparent KD of MS2 coat protein” value came to 31.8 nM (input ligand: FMN 200 uM), 25.5 nM under setting [4] and 40.9 nM (input ligand: none).

Regarding “UCUUGGUUUUUGCUCGUUUUUUGUGUUGAACAUGAGGAUCACCCAUGUAUUGUACGGUCCAGUUUGAUAGUGGUCCG [JMF 33] (puzzle: Sensor for hsa-mir-208a)”, the “apparent KD of MS2 coat protein” value worked out at 25.6 nM under setting [1], 13.6 nM under setting [2] and 29.9 nM under setting [3].

In the case of “UCUUGGUUUUUGCUCGUUUUUUGUGUUGAACAUGAGGAUCACCCAUGUAUUGUACGGUCCGAUUUAGUAGUGGUCCG [JMF 18] (puzzle: Sensor for hsa-mir-208a)”, the “apparent KD of MS2 coat protein” value under setting [1] worked out at 26 nM, the “apparent KD of MS2 coat protein” value under setting [2] is 14.5 nM and the “apparent KD of MS2 coat protein” value under setting [3] amounted to 26.9 nM.

With “UCUUGGUUUUUGCUCGUUUUUUGUGUUGAACAUGAGGAUCACCCAUGUAUUGUACGGUCCGGUUUAGUGAUGAUCCA [JMF 76] (puzzle: Sensor for hsa-mir-208a)”, the “apparent KD of MS2 coat protein” value under setting [1] was found to be 188 nM, the “apparent KD of MS2 coat protein” value under setting [2] came to 196 nM and the “apparent KD of MS2 coat protein” value under setting [3] turned out to be 287 nM.

As to “UGAACCUUCACAGGAUAUCAUGCGAAAAUUGCGUGAGAAGGGUGAAUAUGGUGUUCAUAGUUGCACAUGAGGAUCACCCAUGUA [SameState NG1 #53] (Eterna round: R96, puzzle: Same State NG 1)”, the “apparent KD of MS2 coat protein” value under setting [4] was 92.3 nM.

As to “UGAAUAGUCACAGGAUAUCAUGCGAAAAUUGCGUGAGAAGGGUGGAUGUUGUGCUCAAAGUUCUACAUGAGGAUCACCCAUGUU [SameState NG1 #43] (Eterna round: R96, puzzle: Same State NG 1)”, the “apparent KD of MS2 coat protein” value (input ligand: FMN 200 uM) turned out to be 61.2 nM, the “apparent KD of MS2 coat protein” value under setting [4] was 64 nM and the “apparent KD of MS2 coat protein” value (input ligand: none) worked out at 63.3 nM.

In the case of “UGAAUAUUCACAGGAUAUGAGUUGUAAAGUGGAUCAGAAGGGUGGGUGUUUUGCACGGUGUGUUACAUGAGGAUCACCCAUGUU [SameState NG1 #24] (Eterna round: R96, puzzle: Same State NG 1)”, the “apparent KD of MS2 coat protein” value is, setting by setting: (input ligand: FMN 200 uM) 205 nM; under setting [4], 232 nM; (input ligand: none) 627 nM.

Consider “UGCAUACAUGAGGAUCACCCAUGUCUACGAUGUCGAGGAUAUGGAUUGCCGUGAGGCGUGCCAGAAGGCGAAGUGG [Same State 1 - Mod of Vinnie Teenbexe v.2] (puzzle: Same State 1)”, for which the “apparent KD of MS2 coat protein” value is, setting by setting: under setting [1], 26.2 nM; under setting [2], 33.7 nM; under setting [3], 30.1 nM.

As for “UGCCUGAGUCGAGGAUAUUAUGGAUCAAUUAAUACAUGAGGAUCACCCAUGUAAUUAAUUUAACAUGAGAAGGCGACUCAGGCA [SSNG2/10-A2] (Eterna round: R96, puzzle: Same State NG 2)”, the “apparent KD of MS2 coat protein” value was 7.88 nM (input ligand: FMN 200 uM), 4.69 nM under setting [4] and 8.81 nM (input ligand: none).

On to “UGGAGAAAUCAAGGAUAUGCUACCGUUUCGGUAGCAGAAGGUGAUCACAUGAGGAUCACCCAUGUAUGCAUGCGUGAGCGUGCU [JL SSNG1 3.54] (Eterna round: R96, puzzle: Same State NG 1)”, for which, under setting [4], the “apparent KD of MS2 coat protein” value is 12.6 nM.

In the case of “UGGAUCUAGGCUUGCCUGGGUCCAUGCUGACAUGAGGAUCACCCAUGUGCAUCCUACAAGCUUUUUGCUUGUCUGUC (Eterna round: R96, puzzle: Sensor for hsa-mir-208a)”, the “apparent KD of MS2 coat protein” value by setting is: (input ligand: FMN 200 uM) 384 nM; under setting [4], 607 nM; (input ligand: none) 530 nM.

Consider “UGGAUCUAGGCUUGCCUGGGUCCAUGCUGACAUGAGGAUCACCCAUGUGCAUCCUACAAGCUUUUUGCUUGUCUGUC (puzzle: Sensor for hsa-mir-208a)”, for which the “apparent KD of MS2 coat protein” value under setting [1] came out at 60.7 nM, the “apparent KD of MS2 coat protein” value under setting [2] was found to be 69.7 nM and the “apparent KD of MS2 coat protein” value under setting [3] worked out at 51 nM.

In the case of “UGGCUCAGACUAGGAUAUACGUGGUCACAUGAGGAUCACCCAUGUCUCGAGCUUCGGCUCGAGGCGUAGAAGGAGUCUGAGCCA [SSNG2/6-D2] (Eterna round: R96, puzzle: Same State NG 2)”, the “apparent KD of MS2 coat protein” value worked out at 145 nM (input ligand: FMN 200 uM), 199 nM under setting [4] and 184 nM (input ligand: none).

Consider “UGGCUCAGAGCAGGAUAUAUGUAAUAACAUGAGGAUCACCCAUGUGUCGAGCUUCGGCUCGACACAUAGAAGGGCUCUGAGCCU [SSNG2/2-B3] (Eterna round: R96, puzzle: Same State NG 2)”, for which the “apparent KD of MS2 coat protein” value by setting is: (input ligand: FMN 200 uM) 12 nM; under setting [4], 28.8 nM; (input ligand: none) 40.3 nM.

With “UGGUACAUGGGAGGAUAUCAUGCAAACAUGAGGAUCACCCAUGUAACCAUGGAGACAUGGAUAUAUGAGAAGGCCCAUGUACCU [JL SSNG1 3.51] (Eterna round: R96, puzzle: Same State NG 2)”, the “apparent KD of MS2 coat protein” value stood at 11 nM (input ligand: FMN 200 uM), 19.6 nM under setting [4] and 27.9 nM (input ligand: none).
